B1: FVIIa variant Q286L (enzyme)
chain: ANAFLEELRPGSLERECKEEQCSFEEAREIFKDAERTKLFWISYSDGDQCASSPCQNGGSCKDQLQSYICFCLPAFEGRNCETHKDDQLICVNENGGCEQYCSDHTGTKRSCRCHEGYSLLADGVSCTPTVEYPCGKIPILEKRNASKPQGRIVGGKVCPKGECPWQVLLLVNGAQLCGGTLINTIWVVSAAHCFDKIKNWRNLIAVLGEHDLSEHDGDEQSRRVAQVIIPSTYVPGTTNHDIALLRLHQPVVLTDHVVPLCLPERTFSERTLAFVRFSLVSGWGLLLDRGATALELMVLNVPRLMTQDCLQQSRKVGDSPNITEYMFCAGYSDGSKDSCKGDSGGPHATHYRGTWYLTGIVSWGQGCATVGHFGVYTRVSQYIEWLQKLMRSEPRPGVLLRAPFP
B2: FVIIa variant H257S/Q366V (enzyme)
chain: B1 chain with H257S, L286Q, Q366V
B3: FVIIa variant Q366M (enzyme)
chain: B1 chain with L286Q, Q366M
B4: FVIIa variant H216A/H257A (enzyme)
chain: B1 chain with H216A, H257A, L286Q
B5: FVIIa variant Q366V/H373L (enzyme)
chain: B1 chain with L286Q, Q366V, H373L
B6: FVIIa variant H216A/S222A (enzyme)
chain: B1 chain with H216A, S222A, L286Q
B7: FVIIa variant Q366I (enzyme)
chain: B1 chain with L286Q, Q366I
B8: FVIIa variant Q286Y (enzyme)
chain: B1 chain with L286Y
B9: FVIIa variant H257S/Q286R (enzyme)
chain: B1 chain with H257S, L286R
B10: FVIIa variant S222A/H257A/Q286R/Q366V (enzyme)
chain: B1 chain with S222A, H257A, L286R, Q366V
B11: FVIIa variant S222V (enzyme)
chain: B1 chain with S222V, L286Q
B12: FVIIa variant H257S/Q286R/Q366V (enzyme)
chain: B1 chain with H257S, L286R, Q366V
B13: FVIIa variant Q366L (enzyme)
chain: B1 chain with L286Q, Q366L
B14: FVIIa variant S222E (enzyme)
chain: B1 chain with S222E, L286Q
B15: FVIIa variant S222N (enzyme)
chain: B1 chain with S222N, L286Q
B16: FVIIa variant Q286R/H373A (enzyme)
chain: B1 chain with L286R, H373A
B17: FVIIa variant S222A/H373A (enzyme)
chain: B1 chain with S222A, L286Q, H373A
B18: FVIIa variant Q366V/H373V (enzyme)
chain: B1 chain with L286Q, Q366V, H373V
B19: FVIIa variant S222D (enzyme)
chain: B1 chain with S222D, L286Q

Numbering of substitutions follows the chain as printed. In names and notes the source's numbering stands.

Factor X (FX) (Homo sapiens (Human)), sequence (P00742 41-488 limits assumed): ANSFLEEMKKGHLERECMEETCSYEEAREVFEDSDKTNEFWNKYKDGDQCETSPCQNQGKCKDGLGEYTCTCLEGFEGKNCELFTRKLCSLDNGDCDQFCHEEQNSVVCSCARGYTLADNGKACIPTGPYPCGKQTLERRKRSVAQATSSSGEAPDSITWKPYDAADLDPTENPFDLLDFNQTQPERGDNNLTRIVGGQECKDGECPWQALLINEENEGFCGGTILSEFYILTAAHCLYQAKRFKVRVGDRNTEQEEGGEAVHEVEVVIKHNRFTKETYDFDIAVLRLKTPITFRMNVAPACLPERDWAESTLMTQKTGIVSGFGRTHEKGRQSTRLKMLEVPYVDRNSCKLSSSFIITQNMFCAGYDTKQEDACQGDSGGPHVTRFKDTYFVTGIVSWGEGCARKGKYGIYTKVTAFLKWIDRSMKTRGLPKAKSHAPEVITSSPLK

The assay concerns the target Factor X (FX) (Homo sapiens (Human)) (UniProt P00742).
For the molecule B1, the kcat/KM, TF-Dependent Indirect Assay turned out to be 2.02e+07 M⁻¹ s⁻¹. As for B2, the kcat/KM, TF-Dependent Indirect Assay was 6.71e+07 M⁻¹ s⁻¹. With B3 the figure was 6.61e+07 M⁻¹ s⁻¹. Next, B4: 6.62e+07 M⁻¹ s⁻¹; B5: 3.07e+07 M⁻¹ s⁻¹; B6: 5.46e+07 M⁻¹ s⁻¹. With B7 the figure was 9.37e+07 M⁻¹ s⁻¹; with B8, 1.61e+07 M⁻¹ s⁻¹. Turning to B9, the kcat/KM, TF-Dependent Indirect Assay is 3.93e+07 M⁻¹ s⁻¹. In the case of B10, the kcat/KM, TF-Dependent Indirect Assay came out at 1.86e+08 M⁻¹ s⁻¹. With B11, the kcat/KM, TF-Dependent Indirect Assay stood at 6.04e+07 M⁻¹ s⁻¹.

Turning to B12, the kcat/KM, TF-Dependent Indirect Assay was 1.58e+08 M⁻¹ s⁻¹.

For the molecule B13, the kcat/KM, TF-Dependent Indirect Assay amounted to 6.87e+07 M⁻¹ s⁻¹. Consider B14, for which the kcat/KM, TF-Dependent Indirect Assay is 5.48e+07 M⁻¹ s⁻¹.

For the molecule B15, the kcat/KM, TF-Dependent Indirect Assay came out at 6.82e+07 M⁻¹ s⁻¹.

Turning to B16, the kcat/KM, TF-Dependent Indirect Assay stood at 5.89e+07 M⁻¹ s⁻¹. Turning to B17, the kcat/KM, TF-Dependent Indirect Assay amounted to 3.64e+07 M⁻¹ s⁻¹.

With B18, the kcat/KM, TF-Dependent Indirect Assay was found to be 1.84e+07 M⁻¹ s⁻¹. With B19 the figure was 5.34e+07 M⁻¹ s⁻¹.

These data come from US20090291890A1 (published 2009).
